Measured values: patent publication US20220242944A1

B1: CPR001-GL-F1332m (antibody, V domains shown)
VH: EVQLLESGGGLVQPGGSLRLSCAASGFTFSSYAMSWVRQAPGKGLEWVSYISDDGSLKYYADSVKGRFTISRDNSKNTLYLQMNSLRAEDTAVYYCAKHPYWYGGQLDLWGQGTLVTVSS
VL: SYELTQPPSVSVSPGQTASITCSGDSLGSYFVHWYQQKPGQSPVLVIYDDSNRPSGIPERFSGSNSGNTATLTISGTQAMDEADYYCSAFTHNSDVFGGGTKLTVL
B2: CPR001GLVH/xIC17-SG181v14hk (bispecific antibody, part only; not given: IC17 control arm and constant region, V domains shown, part only)
VH: B1 VH
VL: B1 VL

Target: recombinant human PDGF-B (human) (UniProt P01127)
UniProt P01127, sequence (P01127 82-190 limits assumed): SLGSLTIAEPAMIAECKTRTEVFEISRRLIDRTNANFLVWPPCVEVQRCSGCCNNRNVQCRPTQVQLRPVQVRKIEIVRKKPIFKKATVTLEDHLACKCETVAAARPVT
Experiment: SPR (Biacore T200), antibody captured by anti-human Fc, antigen as analyte, 25 degrees C, pH 7.4, 1:1 model

Binder | Kd
B1 | 20.2 pM
B2 | 16.5 pM
